# From patent US20230183661A1, “BICOMPATIBLE PEPTIDEBIOCOMPATIBLE PEPTIDES FOR INHIBITION OF AGGREGATION OF B-AMYLOID PROTEIN” (Catholic University Industry Academic Cooperation Foundation, priority 2017, published 2023)
# B1: Peptide 4 (β 1-3 fragment of SOD1) (peptide)
# peptide: ATKAVCVLKGDGPVQGIINFEQKESNGPVKVWGSIKGLT
# Target: β-amyloid (Aβ) overexpressed in nerve cells (UniProt P05067)
# Experiment: Co-IP from N2a cells, relative score
binder,measurement,value
B1,Binding strength with β-amyloid,1
